Values of other authors as cited in PMC9066409.
Like-named read-outs stand apart in the source and are kept apart here.

What was measured:
[1] = molecular target: FGFR1 (Homo sapiens) (UniProt P11362)
[2] = molecular target: FGFR1 (Homo sapiens) (UniProt P11362); remark: listed apart in the source

Chain of UniProt P11362 (P11362 22-822): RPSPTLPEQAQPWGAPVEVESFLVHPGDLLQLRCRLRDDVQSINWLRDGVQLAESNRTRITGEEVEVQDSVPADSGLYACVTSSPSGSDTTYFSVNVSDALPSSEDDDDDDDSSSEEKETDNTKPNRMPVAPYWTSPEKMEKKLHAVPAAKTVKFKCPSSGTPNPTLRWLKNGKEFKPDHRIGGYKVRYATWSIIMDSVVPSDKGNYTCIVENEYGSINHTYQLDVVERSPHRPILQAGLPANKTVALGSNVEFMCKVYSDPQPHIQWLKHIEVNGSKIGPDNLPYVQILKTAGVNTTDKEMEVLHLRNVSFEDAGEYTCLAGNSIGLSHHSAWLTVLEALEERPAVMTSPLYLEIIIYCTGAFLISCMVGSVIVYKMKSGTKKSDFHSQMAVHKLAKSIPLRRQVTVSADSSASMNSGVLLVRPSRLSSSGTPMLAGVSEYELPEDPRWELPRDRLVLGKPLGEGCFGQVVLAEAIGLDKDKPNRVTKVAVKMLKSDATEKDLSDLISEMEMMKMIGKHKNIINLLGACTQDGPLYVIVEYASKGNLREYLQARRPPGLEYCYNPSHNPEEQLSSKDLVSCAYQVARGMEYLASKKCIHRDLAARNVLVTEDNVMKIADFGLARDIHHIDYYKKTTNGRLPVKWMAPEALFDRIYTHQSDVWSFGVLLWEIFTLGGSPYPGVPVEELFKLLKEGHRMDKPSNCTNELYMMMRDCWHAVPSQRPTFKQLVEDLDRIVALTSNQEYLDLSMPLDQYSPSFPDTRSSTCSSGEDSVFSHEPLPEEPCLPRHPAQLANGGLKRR

Kd [1] | Kd [2] | Substance
62 nM |  | FGF2 (from UniProt P09038)
 | 136 nM | FGF1 (from UniProt P05230)
